Test results published in patent US20050043231A1, “Therapy for growth hormone induced insulin resistance in juveniles with growth disorders” (priority 2001, published 2005).

B1: GH: recombinant bovine GH, subcutaneously 10 μgm/gm/day in two divided doses in IUGR rats (protein, UniProt P01246 27-217, looked up)
Somatotropin: AFPAMSLSGLFANAVLRAQHLHQLAADTFKEFERTYIPEGQRYSIQNTQVAFCFSETIPAPTGKNEAQQKSDLELLRISLLLIQSWLGPLQFLSRVFTNSLVFGTSDRVYEKLKDLEEGILALMRELEDGTPRAGQILKQTYDKFDTNMRSDDALLKNYGLLSCFRKDLHKTETYLRVMKCRRFGEASCAF

Legend:
[1] = Fasting serum IGF-I, IGF-II and leptin and BMI SDS in short SGA children on rhGH therapy; assay type: in vivo, human
Text: All subjects were born SGA, had marked short stature (height approximately—3 standard deviation score (SDS)) with a height velocity<25th percentile for >1 year prior to starting rhGH therapy. SGA was defined as a birth weight<10th percentile for gestational age. Additional enrolment criteria for inclusion into the study included; no change in Tanner pubertal stage and/or testicular volumes throughout the study period, normal GH response to clonidine stimulation (defined as a GH level≧7 μgm/L), absence of both islet cell antibodies (<10 Juvenile Diabetes Foundation units) and insulin autoantibodies to exclude type 1 prediabetes. […] Body mass index (BMI) was used as a measure of relative obesity and expressed as BMI SDS.
(§1) Plasma glucose concentration was measured using a Hitachi 911 automated random access analyser (Tokyo, Japan) with an interassay coefficient variation of 1.2% (Trinder P. Determination of blood glucose using an oxidase-peroxidase system with a non-carcinogenic chromogen. J Clin Pathol 1995; 22: 158-61). Insulin was determined by Abbotts IMX microparticle enzyme immunoassay with an interassay coefficient of variation of <5%. Plasma IGF-I was measured using an established IGF binding protein blocked radioimmunoassay (Blum et al. Radioimmunoassays for insulin-like growth factors and their binding proteins. Growth Reg. 1994; 4: (Suppl.) 11-19). […]

[2] = Insulin sensitivity by Bergman's minimal model (frequently sampled iv glucose tolerance test with tolbutamide) in short SGA children on rhGH therapy; assay type: in vivo, human
Text: All subjects were born SGA, had marked short stature (height approximately—3 standard deviation score (SDS)) with a height velocity<25th percentile for >1 year prior to starting rhGH therapy. SGA was defined as a birth weight<10th percentile for gestational age. Additional enrolment criteria for inclusion into the study included; no change in Tanner pubertal stage and/or testicular volumes throughout the study period, normal GH response to clonidine stimulation (defined as a GH level≧7 μgm/L), absence of both islet cell antibodies (<10 Juvenile Diabetes Foundation units) and insulin autoantibodies to exclude type 1 prediabetes. Prepubertal subjects were defined as males with a testicular volume<4 ml and girls with tanner stage 1 breast development. Subjects were excluded if; a chromosomal, intrauterine infection or syndromal cause for SGA was identified, a first degree relative had type 2 diabetes mellitus, or medical therapy was taken that was known to influence SI. Subjects were recruited from the Endocrinology Clinics at Starship Children's Hospital. Birth weight and length were converted into SDSs to correct for age and sex. Body mass index (BMI) was used as a measure of relative obesity and expressed as BMI SDS.
Insulin sensitivity (SI) was measured in 11 subjects prior to and 12 subjects during rhGH treatment. In addition five prepubertal subjects agreed to have rhGH therapy suspended for three months with reassessment of SI. Bergman's minimal model was used to measure SI, acute insulin response (AIR) and glucose effectiveness (Sg). The data was provided from a 90 min frequently sampled iv glucose tolerance test with tolbutamide, which had been modified and validated for use in children as previously described (Cutfield et al. 1990). SI is a measure of insulin mediated glucose uptake, AIR a measure of insulin secretory capacity and Sg is a measure of glucose stimulated glucose uptake independent of insulin. These three indices are characteristic measurements useful for determining glycemic states. Plasma glucose and insulin was measured from all samples and the values used for measurement of SI, AIR and Sg. Approval for the study was provided by the North Health Ethics Committee and signed, informed consent was obtained from subjects and their parents.
as §1, with “11-19). The IGF-I detection limit was 1.3 ng/ml with intra-assay and inter-assay coefficients of variation of 5.0% and 9.2%, respectively. Plasma IGF-II samples were intially treated with acid-ethanol cryoprecipitation to remove IGF II from binding proteins. IGF II was then measured by RIA using a highly specific polyclonal antiserum (Blum et al. A specific radioimmunoassay for insulin-like growth factor II. The interference of IGF binding proteins can be blocked by excess IGF-I. Acta Endcrinol (Copenh) 1988; 129:427-435).” for “11-19).”

[3] = Growth and body composition in IUGR rats; assay type: in vivo, rat
Experimental: (§2) Studies of insulin resistance in vivo in rats were carried out in animals in which insulin resistance was produced by fetal undernutrition (“IUGR”) as described previously (Woodall et al. 1996). Virgin Wistar rats (age 100±5 days) were time mated using a rat estrus cycle monitor to assess the stage of estrus of the animals prior to introducing the male. After confirmation of mating, rats were housed individually in standard rat cages containing wood shavings as bedding and free access to water. All rats were kept in the same room with a constant temperature maintained at 25° C. and a 12-h light: 12-h darkness cycle. Animals received an undernutrition diet throughout pregnancy that was 30% of an ad libitum (“AD”) diet. Food intake and maternal weights were recorded daily until birth. A total of 40 male pups were recruited for the study. After birth, pups were weighed and litter size recorded. Litter size was then adjusted to eight pups to ensure standardised nutrition. Male pups from undernourished mothers were cross-fostered onto dams which received AD feeding throughout pregnancy to ensure post-natal viability. After weaning all male offspring were fed a hypercaloric diet ad libitum for the remainder of the study (total digestible energy 4846 kcal/kg, protein 31.8%, fat 30%, fat/energy ratio 55.72%, protein/energy ratio 26.25%). The fat content of the hypercaloric diet was chosen to be typical of many Western diets known to be associated with abnormalities in glucose metabolism in humans.
At 25 days of age, three days after weaning, study animals were enrolled into treatment groups for 28 days. The study groups were weight matched. […]
(§3) Troglitazone was added to food at approximately 100 mg/kg/day based on daily food consumption. Metformin was mixed with drinking water and the dose calculated to 500 mg/kg/day based on daily water consumption. […] Body weight and food intake of all offspring were measured daily for the first 2 weeks then every second day until study completion. […]
Statistical comparisons were carried out using the statistical package SAS (version 8) for personal computers. […] For analysis of growth and body composition data (BMI and % retroperitoneal fat), each of the four treatment groups were analysed as separate treatments and then Dunnetts test was used to compare the three active treatments with the control group. Data are expressed as mean±SEM, with p<0.05.
Body composition was examined in several different ways; body mass index (BMI), retroperitoneal fat expressed as a percentage of body weight (retroperitoneal fat %) and gonadal fat expressed as a percentage of body weight (gonadal fat %). […]

[4] = Tail cuff systolic blood pressure in IUGR rats; assay type: in vivo, rat; settings: day 53, tail cuff, vs no treatment group and GH treated group
Experimental: Studies of insulin resistance in vivo in rats were carried out in animals in which insulin resistance was produced by fetal undernutrition (“IUGR”) as described previously (Woodall et al. 1996). Virgin Wistar rats (age 100±5 days) were time mated using a rat estrus cycle monitor to assess the stage of estrus of the animals prior to introducing the male. After confirmation of mating, rats were housed individually in standard rat cages containing wood shavings as bedding and free access to water. All rats were kept in the same room with a constant temperature maintained at 25° C. and a 12-h light: 12-h darkness cycle. Animals received an undernutrition diet throughout pregnancy that was 30% of an ad libitum (“AD”) diet. Food intake and maternal weights were recorded daily until birth. […] After birth, pups were weighed and litter size recorded. […]
as §3
At day 53, systolic blood pressure measurements were recorded using tail cuff plethysmography (Blood pressure analyser IITC, Life Science, Woodland Hills, Calif., USA) as described previously (Vickers et al. 2000). […]

[5] = Fasting plasma insulin, glucose, IGF-I and FFA in IUGR rats treated for 28 days; assay type: in vivo, rat
Experimental: as §2
At 25 days of age, three days after weaning, study animals were enrolled into treatment groups for 28 days. The study groups were weight matched. The 40 study males were divided into four treatment groups, each of 10 animals; (a) no treatment (control group), (b) troglitazone and metformin, (c) recombinant bovine GH (GH) and (d) GH, troglitazone and metformin. […]
as §3
At day 53, systolic blood pressure measurements were recorded using tail cuff plethysmography (Blood pressure analyser IITC, Life Science, Woodland Hills, Calif., USA) as described previously (Vickers et al. 2000). […] Pulses in pressure were recorded during deflation at a rate of 3 mmHg/sec and the reappearance of a pulse was used to determine systolic blood pressure. […]
IGF-I in rat blood plasma was measured using an IGF binding protein (IGFBP)-blocked rat RIA described previously (Blum et al. 1994). […] Rat insulin was measured by an in-house radioimmunoassay (Vickers et al. 2000, Lewis et al. 1999). […]

Row | Molecule | adverse event: type 2 diabetes mellitus ([1]; one subject, 12 months after cessation of 4.1 years of rhGH therapy) | fasting serum IGF-I level ([1]; with rhGH therapy, 127±37 pretreatment, p<0.001) [μgm/l] | compensatory rise in AIR (acute insulin response) ([2]; during rhGH therapy, p<0.009) [%] | recovery of SI after rhGH suspended ([2]; five prepubertal subjects, three months after rhGH therapy was suspended) | fall in SI during rhGH therapy, prepubertal children ([2]; prepubertal subjects) [%] | fall in SI during rhGH therapy, pubertal subjects ([2]; pubertal subjects) [%] | fall in SI (insulin sensitivity) during rhGH therapy ([2]; short SGA children, all subjects, 21±6 months of rhGH, p=0.018) [%] | nose to anus length ([3]; IUGR rats at study end, no treatment group 179±2) [mm] | gonadal fat % (percentage of body weight) ([3]; IUGR rats, across the four groups) | retroperitoneal fat % (percentage of body weight) ([3]; IUGR rats, no treatment group 0.97±0.06%) [%] | BMI ([3]; IUGR rats, no treatment group 6.8±0.2) | systolic BP [4] | fasting insulin levels ([5]; 28 days of treatment, GH vs no treatment p<0.0001, GH plus sensitisers vs GH alone p=0.01) | plasma free fatty acids (FFA) ([5]; fasting) | plasma glucose ([5]; fasting, no treatment group 7.8±0.3, p<0.0001) [mmol/L] | fasting IGF-I levels ([5]; p<0.0001)
1 | rhGH: recombinant human growth hormone given to short SGA children | developed type 2 diabetes mellitus | 189±46 | 123±59 | no recovery in SI | 48 | 35 | 44±10 | – | – | – | – | – | – | – | – | –
2 | B1 | – | – | – | – | – | – | – | 188±1 | increase in gonadal fat % | 0.69±0.05 | 6.9±0.1 | trend of increasing systolic BP | substantially and significantly increased | fall observed in plasma FFA | 11.9 ± 0.9 | higher
